# B1: TPR t1 (parent)
# chain: GACCAAUCUGCCCUCAGAGCUCGAGAACAUCUUCGGAUGCAGAGGAGGCAGGCUUCGGUGGCGCGAUAGCGCCAACGUCCUCAACCUCCAAUGCAUCCCACCACAUGAUGAUGCCUGAAGAGCCUUGGUUUUUUG
# Variants of: B1
# Test: polymerase ribozyme fitness, log enrichment relative to wild type (log ratio); higher = more active; in vitro selection for triplet polymerase activity
# Procedure, shortened: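 Both subunits of a heterodimeric triplet polymerase ribozyme were given their own mutant library, built by PCR and transcribed. Each library was annealed with a biotinylated primer, the partner subunit and triplets, incubated frozen at −7 °C, and its extended constructs gel-excised, captured on streptavidin beads and amplified by RT-PCR, all in one round done in triplicate. Fitness is the logarithm of genotype enrichment relative to wild-type enrichment, with replicates averaged by inverse-variance weighting. That logarithm is base 2, and Illumina-sequenced genotypes needed ≥10 input reads and ≥1 read per output.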
row,Variant,polymerase ribozyme fitness (log ratio)
1,GACCAAUCUGCCCUCAGAGCUCGAGAACAUCUUCGGAUGCUGAGGAGGCAGCCUUCGGUGGCGCGAUAGCGCCAACGUCCUCAACCACCAAUGCAUCCCACCACAUGAUGAUGCCUGAAGAGCCUUGGUUUUUUG,-1.57
2,GACCAAUCUGCCCUCAGAGCUCGAGAACAUCUUCGGAUGCUGAGGAGGCAGGCUUCGCUGGAGCGAUAGCGCCAACGUCCUCAACCUCCAAUGCAUCCCACCACAUGAUGAUGCCUCAAGAGCCUAGAUUUUUUG,-7.88
3,GACCAAUCUGCCCUCAGAGCUCGAGAACAUCUUCGGAUGCUGAGGAGGCAAGCUUCCGUGGCGCGAUAGCGCCAACGUCCUAAACCUCCAAUGCAGCCCACCACAUGAUGAUGUCAGAAGAGCCUUGGUUUUUUG,-7.09
4,GACCAAUCUGCCCUCAGAGCUCGAGAACAUCUUCGGAUGCUGAGGAGGCAGGCUUCGGUGGCGCGAUAGCGCCAACGUCCUCAACCUCCAAUGCAUCCCACCACAUGAUGAUGCCUGAAGAGCCUGGGUUUUUUG,-3.66
5,GACCAAUCUGCCCUCAGAGCUCGAGAACAUCUUCGGAUGCUGAGGAGGCAGGCUUCGGUGGCGCGAUAGCGCCAACGUCCUCAACCUCCAAUGCAUCCCACCACAUGAUGAUGCCCGAAGAGCUUUGGUAUUUUG,-3.9
6,GACCAAUCUGCCCUCAGAGCUCGAGAACAUCUUCGGAUGCUGAGGAGGCAGGCUUCGGUGGCGCGAUAUCGCCAACGUCCUCAACCUCCAAUCCAUCCCACCACAUGAUGAUGCCUGAAGAGCCUUGGUUUUUUG,-0.276
7,GACCAAUCUGCCCUCAGAGCUCGAGAACAUCUUCGGAUGCUGAGGAGGCAGGCUUCGGUGGCGCGAUAGCGCCAACGUCCUCAACCUCCAAUGCAUCCCACCACAUGAUGAUGCCUGAAGAGCCUUCGUUUUUUG,-2.91
8,GACCAAUCUGCCCUCAGAGCUCGAGAACAUCUUCGGAUGCUGAGGAGGCAGGCUUCGGUGGCGCGAUAGCGCCAACGUCCUCAACCUCCAAUACAUCCCACCACAUGAUGAAGCCUGAAGAGCCUUGGUUUUUUG,-1.69
9,GACCAAUCUGCCCUCAGAGCUCGAGAACAUCUUCGGAUGCUGAGGAGGCAGGCUUCGGUGGCGCGAUAGCGCCAACGUCCUCAACCUCCAAUGCAUCCCACCACAUGAGGAUGCCUGAAGAGCCUUGGUUUUUUG,-6.03
10,GACCAAUCUGCCCUCAGAGCUCGAGAACAUCUUCGGAUGCUGAGGAGGCAGGCUUCGGUGGCGCGAUAUCGCCAACGGCCUCAACCUCCAAUGCAUCCCACCACAUGAUGAUGCCUGAAGAGUCUUGGUUUUUUG,1.47
11,GACCAAUCUGCCCUCAGAGCUCGAGAACAUCUUCGGAUGCUGAGGAGGCAGGCUUCGGUGGCGCGAUAGCGCCAACGUCCUCAACCUCCAAUGCAUCCCACCACAUGAUGAUGCCUGAAGAGCCUUGAUUUUUUG,-2.79
12,GACCAAUCUGCCCUCAGAGCUCGAGAACAUCUUCGGAUGCUGAGGAGGCAGGCUUCGGUGACGCGAUAGCGCCAACGUCCUGAACCUCCAAUGCAUCCCACCACAUGAUGAUGCCUGAAAAGCCGUGGUUUUUUG,-2.63
13,GACCAAUCUGCCCUCAGAGCUCGAGAACAUCUUCGGAUGCUGAGGAGGCAGGCUUCGGUGGCGCGAUAGCGCCAACGUCCUCAACCCCCUCUGCAUCCCACCACAUGAUGAUGCCUGAAGAGCCUUGGUUUUUUG,-1.28
14,GACCAAUCUGCCCUCAGAGCUCGAGAACAUCUUCGGAUGCUGAGGAGGCAGGCUUCGGUGGCGCGAUAUCGCCAACGUCCUCAACCUCCAAUGCAUCCCACCACAUGAUGAUGCCUGAAGAGCCUUGGUUUUUUG,-0.159
15,GACCAAUCUGCCCUCAGAGCUCGAGAACAUCUUCGGAUGCUGAGGAGGCAGGCUUCGGUGGCGCGAUAGCACCAACGUCCUCAACCUCCAAAGCAUCCCACCACAUGAUGAUGCCUGAAGAGCCUUCGUUUUUUG,-3.79
16,GACCAAUCUGCCCUCAGAGCUCGAGAACAUCUUCGGAUGCUGAGGAGGCAGGCUUCGGUGGCGCGAUACCGCCAACGUCCUCAACCUCCAAUGCAUCCCACCACAUGAUGAUGCCUGAAGAGCCUUUGUUUUUUG,-3.25
17,GACCAAUCUGCCCUCAGAGCUCGAGAACAUCUUCGGAUGCUGAGGAGGCAGGCUUCGGUGGCGCGAUACCGCCAACGCCCUCAACCUCCAAUGCAUCCCUCCACAUGAUGAUGCCUGAAGAGCCUUGGUUUUUUG,-6.25
18,GACCAAUCUGCCCUCAGAGCUCGAGAACAUCUUCGGAUGCUGAGGAGGCAGGCUUCGGUGGCGCGAUAGCGCCAACGUCCUCAACCUCCAAUGCAUCCCACCACAUGAUGAUGCCUGAACAGCCUUGGUUUUUUG,-0.366
19,GACCAAUCUGCCCUCAGAGCUCGAGAACAUCUUCGGAUGCUGAGGAGGCAGGCUUCGGUUGCGCGAUAGCGCCAACGUCCUCAAACUCCAAUGUAUCCCACCACAUGAUGAUGCCUGAAGAGCCUUGGUUUUUUG,-1.72
20,GACCAAUCUGCCCUCAGAGCUCGAGAACAUCUUCGGAUGCUGAGGAGGCAGGCUUCGGUGGCGCGAUAGCGCCAACGUCCUCAACCUCCAAUGCAUCCCACCACAUGAUGAUGCCUGAAGAGCCUUGGCUUUUUG,-0.914
21,GACCAAUCUGCCCUCAGAGCUCGAGAACAUCUUCGGAUGCUGAGGAGGCAGGCUUCGGUGGCGCGAUAGCGCCAACGUCCUCAACCUCCAACGCAUCCCACCACAUGAUGAUGCCUGAAGAGCCUUGGUUUUUUG,-1.21

row,Variant,polymerase ribozyme fitness (log ratio)
1,GACCAAUCUGCCCUCAGAGCUCGAGAACAUCUUCGGAUGCUGAGGAGGCAGGCUUCUGUGGCGCGAUAGCGCCAACGUCCUUAACCUCCAAUGCAUCCCACCACAUGAUGAUGCCUGAAGAGCCUUGGUUUUUUG,-1.52
2,GACCAAUCUGCCCUCAGAGCUCGAGAACAUCUUCGGAUGCUGAGGAGGCAGGCUUCGGUGGCGCGAUAGCGCCAACGUCCUCAACCUCCAAUGCAUCCCACCACAUGAUGAUGCCUGAAGAGCCGUGGUUUUUUG,-1.97
3,GACCAAUCUGCCCUCAGAGCUCGAGAACAUCUUCGGAUGCUGAGGAGGCAGGCUUCGGUGGCACGAUAGCGCCAACGUCCUCAACCUCCAAUGCAUCCCACCACAUGAUGAUGCCUGAAGAGCUUUGGUUUUUUG,-1.14
4,GACCAAUCUGCCCUCAGAGCUCGAGAACAUCUUCGGAUGCUGAGGAGGCAGGCUUCGGUGCCGCGAUAGCGCCAACGUCCUCAACCUCCAAUGCAUCCCACCACAUGAUGAUGCCUGAAGAGCCUUGGUUUUUUG,-3.99
5,GACCAAUCUGCCCUCAGAGCUCGAGAACAUCUUCGGAUGCUGAGGAGGCAGGCUUCGGUGGCGCGAUAGCGCCAACGGCCUUAACCUCCAGUGCAUCCCACCACAUGAUGAUGCCUGAAGCGCCUUGGUUUUUUG,-1.41
6,GACCAAUCUGCCCUCAGAGCUCGAGAACAUCUUCGGAUGCAAAGGCGGCAGGCUUCGGUGGCCCGAUAGCGCCAACGUCCUCAACCUCCAAUGCAUCCCACCACAAGAUGAUGCCUGAAGAGCCUUGGUUUUUUG,-3.82
7,GACCAAUCUGCCCUCAGAGCUCGAGAACAUCUUCGGAUGCUGAGGAGUCAGGCUUCGGUGGCGCGAUAGCGCCAACGUCCUCAACCUCCAAUGCAUCCCACCAAAUGAUGAUGCCUGAAGGACCUUGGUUUUUUG,-3.77
8,GACCAAUCUGCCCUCAGAGCUCGAGAACAUCUUCGGAUGCUGAGGAGGCAGGCUUCGCUGGCGCGAUAGCGCCAACGUCCUCAACCUCGAAUGCAUCCCACCACAUGAUGAUGCCUGAAGAGCCUUGGUUUUUUG,-2.91
9,GACCAAUCUGCCCUCAGAGCUCGAGAACAUCUUCGGAUGCUGAGGAGGCAGGCUUCGGUGCCGCGAUAGCGCCAACGUCCUCAACCUCCAAUGCAUCCCACCACAUGAUGAUGCAUAAAGAGCCUUGGUUUUUUG,-5.8
10,GACCAAUCUGCCCUCAGAGCUCGAGAACAUCUUCGGAUGCAAUGGAGGCAGGCUUCGGUGGCGCGAUAGCGCCAACGUCCUCAACCUCCAAUGCAACCCACCACAUGAUGAUGCCUGAAGAGCCUUGGUUUUUUG,-2.41
11,GACCAAUCUGCCCUCAGAGCUCGAGAACAUCUUCGGAUGCUGAGGAGGCAGGCUUCGGUGGCGCGAUAGCGCCAACGUCCUCAACCUCCAAUGCAUCCCACCACAUGAUGAAGCCUGAAGAGCCUUGGUUUUUUG,-0.325
12,GACCAAUCUGCCCUCAGAGCUCGAGAACAUCUUCGGAUGCUGAGGAGGCAGGCUUCGGUGGCGCGAUAGCGCCAACGUCCUCAACCUCCAAUGCAUCCCACCACAUGAUGACGCCUGAAGAGCCUUGGUUUUUUG,0.631
13,GACCAAUCUGCCCUCAGAGCUCGAGAACAUCUUCGGAUGCUGAGGAGGCAGGCUUCCGUGGCGCGAUAGCGCCAACGUCCUCAACCUCCAAUGCAUCCCACCACAUGAUGAUGCCUGAAGAGCCUUGGUUUUUUG,-1.91
14,GACCAAUCUGCCCUCAGAGCUCGAGAACAUCUUCGGAUGCAAGGGAGGCAGGCUUAGGUGGCGCGUUAGCGCCAACGUCCUCAACCUCCAGUGCAACCCACCACAUGAUGAGGCCUGAAGAGCCUUGGUUUUUUG,-6.49
15,GACCAAUCUGCCCUCAGAGCUCGAGAACAUCUUCGGAUGCUGAGGAGGCAGGCUUCGGUGGCGCGAUAGCGCCAACGUCCUCAACCUCCAAUGCAUCCCACCACAUGAUAAUGCCUGAAGCACCUUGUUUUUUUG,-5.21
16,GACCAAUCUGCCCUCAGAGCUCGAGAACAUCUUCGGAUGCUGAGGAGGCAGGCUUCGGUGGCGCGAUAGCGCCAACGUCCUCAACCUCCAAUGCAUCCCACCACAUGAUGAUGCCUCAAGAGCCUUGGUUUUUUG,-4.87
17,GACCAAUCUGCCCUCAGAGCUCGAGAACAUCUUCGGAUGCUGAGUAGGCAGGGUGCGGUGGCUCGAUAGCGCCAACGUCCUCAACCUCCAAUGCAUCCCACCACAUGAUGAUGCCUGAAGAGCCUUGGUUUUUUG,-6.72
18,GACCAAUCUGCCCUCAGAGCUCGAGAACAUCUUCGGAUGCUGAGGAGGCAGGCUUCCGUGGUGCGAUAGCGCCAACGUCCUCAACCUCCAAUGCAUCCCACCACAUGAUGAUGCCUGAAGAGCCUUGGUUUUUUG,-0.95
19,GACCAAUCUGCCCUCAGAGCUCGAGAACAUCUUCGGAUGCUGAGGAGGCAGGCUUCGGUGGCACGAUAGCGCCAACGUCCUCAACCUCCAAUGCAUCCCAACACAUGAUGAUACCUGUAGAGCCUUGGUUUUUUG,-4.42
20,GACCAAUCUGCCCUCAGAGCUCGAGAACAUCUUCGGAUGCUGAGGAGGCAGGCUUCGGUGGCGCGAUAGCGCCAACGACCUCAACCUCCAAUGCAUCCCACCACAUGAUGACGCCUGAAGAGCCUUGGUUUUUUG,0.679
21,GACCAAUCUGCCCUCAGAGCUCGAGAACAUCUUCGGAUGCUGAGGAGGCAGGCUUCGGUGGCACGAUAGCGCCAACGUCCUCAACCUCCAAUGCAUCCCACCACAUGAUGAUGCCUGAAGAGCCUUGGUUUUUUG,-2.73
